The text below walks through data of patent US20040091492A1.

The target of experiment [1] is HLA-A2 on Hmy2.C1R-A2 target cells pulsed with HTLV-1 TAX 11-19 peptide (human), A*02:0. In words: cell-based or functional assay.
For experiment [2], the target named is HLA-A2 on Hmy2.C1R-A2 transfectant cells with the HIV gag 77-85 peptide (human), A*02:0.
For experiment [3], the target named is HLA-A3 on Hmy2.C1R-A3 transfectant cells with the pn2a.A3 peptide (human).
In experiment [4] the target is HLA-A1 on Hmy2.C1R-A1 transfectant cells with the OD 309 peptide (ornithine decarboxylase 309-317) (human). Briefly: competition with 2.5 µM myc-hβ2m on Hmy2.C1R-A1 cells with OD 309 peptide, 9E10 flow cytometry.
For experiment [5] the target is unchanged. Briefly: HLA stabilization assay, acid-stripped Hmy2.C1R-A1 cells with OD 309 peptide and BB7.5 mAb, flow cytometry.
Experiment [6] deals with HLA-A3 on Hmy2.C1R-A3 transfectant cells with the pn2a.A3 peptide (human). The source holds these as a separate data set.

As to “hβ2m S55V (human β2-microglobulin with valine at position 55 of the mature protein) (from UniProt P61769 21-119)”, in experiment [1], the fold more effective than wild-type hβ2m at enhancing target cell lysis (CTL lysis assay) was 4 fold. Moreover, the fold better inhibition of myc-hβ2m binding than wild-type hβ2m in experiment [2], in experiment [3] and in experiment [4] was 2.5 fold throughout. In addition, the fold better stabilization than wild-type hβ2m in experiment [5] was found to be 2 fold; in experiment [6] it was 3 fold.
